In patent US20180066068A9, “ANTI-PSYK ANTIBODY MOLECULES AND USE OF SAME FOR SYK-TARGETED THERAPY” (Millennium Pharmaceuticals, Inc., priority 2014, published 2018):

Columns and labels:
Assay type in all cases: binding
[1] = target: T1, pSYK in PHTX 95L xenografts (Homo sapiens, UniProt P43405); assay: Quantitative pSYK IHC on PHTX 95L xenografts (Positive Pixel Count)
T1 construct: from tissue; host or cells: FFPE sections of PHTX-95L primary human lymphoma xenografts grown in NOD SCID mice
Method: Final selection of antibody was performed by qualitative and quantitative assessment of IHC results of staining pSYK in PHTX 95L xenografts from untreated or SYK inhibitor-treated mice described above using the Ventana Discovery XT autostainer and the same staining protocols as previous assays (see FIG. 2).
Quantitative analysis was performed with Aperio Spectrum analysis following Postitive Pixel Count v9 Algorithm at 20× magnification. The Positive pixel analysis was used rather than a signal-to-noise ratio because of program difficulties defining true cytoplasmic staining from background for positive amounts below 5%. The table below has the results of the quantitive analysis.

[2] = target: T2, pSYK in pervanadate-treated WSU-DLCL cells, PHTX-95L xenograft, DLBCL TMA core, normal spleen (Homo sapiens, UniProt P43405); assay: Validation of MIL81-1-8 IHC specificity
T2 construct: from tissue; host or cells: pellet of pervanadate-treated WSU-DLCL cells; PHTX-95L xenograft; DLBCL tissue microarray core; normal spleen
Method: Validation of the specificity MIL81-1-8 on lymphoma cells used a pellet of pervanadate-treated WSU-DLCL cells, PHTX-95L xenograft or a TMA core of a DLBCL tumor. When peptide immunogen was added to the antibody prior to incubation with the tissue, the pSYK IHC staining was blocked (FIG. 9). Another validation of the specificity of MIL81-1-8 staining used phosphatase treatment of the slides prior to antibody incubation. […] Due to this nuclear staining of phosphatase-treated samples, staining of only nuclei in samples was generally judged to be off-target and thus pSYK-negative.

[3] = target: T3, pSYK Y525/6 in DLBCL tissue biopsies (Homo sapiens, UniProt P43405); assay: IHC on recently biopsied DLBCL tissues
T3 construct: from tissue; host or cells: FFPE human DLBCL biopsies; one normal lymph node

[4] = target: T4, pSYK in PHTX95L xenograft (Homo sapiens, UniProt P43405); assay: IHC on Leica BOND RX, PHTX95L xenograft background; conditions: MIL81-1-8 at 1:3200, 2175 at 1:25
T4 construct: from tissue; host or cells: FFPE sections of PHTX-95L primary human lymphoma xenografts grown in NOD SCID mice
Method: Similar results were obtained with the MIL81-1-8 subclone using an automated protocol on a Leica automated stainer. pSYK protein levels in Formalin-Fixed, Paraffin-Embedded tissues were incubated with MIL81-1-8 antibody ([…]) for 30 minutes on the Leica Microsystems (Wetzlar, Germany) BOND RX automated stainer. Antibodies were incubated with a rabbit anti-goat HRP secondary antibody (Leica Laboratories) and developed with the 3,3′-diaminobexidine (DAB) substrate map system. Slides were counterstained with hematoxylin and imaged using the Aperio whole slide scanning system (XT). MIL81-1-8 antibody was compared to commercial pSYK antibody Epitomics pSYK Catalog No. 2175-1 (Y525/526) for staining specificity. […] A detectable trend toward reduction of pSYK staining also was seen by the anti-pSYK MIL81-1-8 antibody in medium- and low-expressing xenograft samples from mice treated with a SYK inhibitor (FIGS. 5 to 7).

[5] = target: T5, pSYK in HBL1 and Ly10 xenografts (Homo sapiens, UniProt P43405); assay: IHC on medium- and low-expressing xenografts
T5 construct: from tissue; host or cells: FFPE HBL1 and OCI-LY10 xenografts in SCID mice
Method: An IHC assay using the MIL81-1-8 antibody was developed to evaluate pSYK expression in HBL1 xenograft tissue and several primary human tissue xenografts (PHTX-95L, OCI LY10) derived from diffuse large B-cell lymphoma (DLBCL) patient samples in female SCID mice. pSYK protein levels in Formalin-Fixed, Paraffin-Embedded (FFPE) tissues were assessed on […] thick sections and incubated with MIL81-1-8 antibody ([…]) for 1 hour on the Ventana Medical Systems (Tucson, Ariz.) Discovery XT automated stainer. Antibodies were incubated with OmniMap goat anti-rabbit HRP secondary antibody (Ventana Medical Systems) for 16 minutes and developed with the 3,3′-diaminobexidine (DAB) substrate map system. Slides were counterstained with hematoxylin and imaged using the Aperio whole slide scanning system (XT).
Similar results were obtained with the MIL81-1-8 subclone using an automated protocol on a Leica automated stainer. pSYK protein levels in Formalin-Fixed, Paraffin-Embedded tissues were incubated with MIL81-1-8 antibody ([…]) for 30 minutes on the Leica Microsystems (Wetzlar, Germany) BOND RX automated stainer. Antibodies were incubated with a rabbit anti-goat HRP secondary antibody (Leica Laboratories) and developed with the 3,3′-diaminobexidine (DAB) substrate map system. Slides were counterstained with hematoxylin and imaged using the Aperio whole slide scanning system (XT). […]

B1: Subclone 1-8: rabbit monoclonal anti-pSYK Y525/526 antibody from hybridoma subclone of multiclone 81-1 (antibody)
heavy: QSVEESGGRLVTPGTPLTLTCTVSGIDLNSYIMSWVRQAPGKGLEWIGIISRRGNTYYASWPKGRFTISKTSTTVDLKITSPTTEDTATYFCARAYLYTSGTMSVWGPGTLVTVSSGQPKAPSVFPLAPCCGDTPSSTVTLGCLVKGYLPEPVTVTWNSGTLTNGVRTFPSVRQSSGLYSLSSVVSVTSSSQPVTCNVAHPATNTKVDKTVAPSTCSKPTCPPPELLGGPSVFIFPPKPKDTLMISRTPEVTCVVVDVSQDDPEVQFTWYINNEQVRTARPPLREQQFNSTIRVVSTLPIAHQDWLRGKEFKCKVHNKALPAPIEKTISKARGQPLEPKVYTMGPPREELSSRSVSLTCMINGFYPSDISVEWEKNGKAEDNYKTTPAVLDSDGSYFLYSKLSVPTSEWQRGDVFTCSVMHEALHNHYTQKSISRSPGK
light: ADIVMTQTPSPVEAAVGGTVTIKCQASESISSYLSWYQQKPGQPPKLLIYRASTLVSGVPSRFKGSGSGTDFTLTISDLECADAATYYCQHTYFGSDYVGGFGGGTEVVVKGDPVAPTVLIFPPAADQVATGTVTIVCVANKYFPDVTVTWEVDGTTQTTGIENSKTPQNSADCTYNLSSTLTLTSTQYNSHKEYTCKVTQGTTSVVQSFNRGDC
- ratio of Percent Positive Pixel per total Pixel, PHTX 95L Untreated ([1]; 20× magnification, Positive Pixel Count v9): 25.19%
- ratio of Percent Positive Pixel per total Pixel, PHTX95L SYK Inhibitor ([1]; mice treated with SYK inhibitor (Compound A), 20× magnification): 11.30%
- IHC performance compared with Epitomics 2175-1 ([1]; stains of PHTX-95L xenografts, intensity and signal to noise ratio, listed as MIL81-1-8): performing best and best
- pSYK IHC staining after phosphatase treatment of slides ([2]; except nuclear staining of normal spleen): eliminated epitopes
- pSYK IHC staining after adding peptide immunogen to the antibody ([2]; peptide blocking): blocked
- Staining in recently biopsied DLBCL tissues versus Epitomics 2175-1 [3]: much stronger and cleaner
- IHC background [4]: minimal background
- Detection of pSYK / distinction of untreated and Syk-inhibitor treated tumors [5]: able to specifically detect
